In article PMC10283433:

Experiments:
[1] = target: anti-FX antibodies with the V1 or V2 mutation pair; assay: SPR
[2] = target: NXT007 in the dKiHv14 format (anti-FIXa/FX bispecific humanized IgG4, kappa/lambda) (human); assay: SPR

fold increase in KD against the parent [1] [times] | FcRn binding ability after acid treatment, relative to the initial sample [2] [%] | Substance
1.3 to 1.4 |  | human FX (Enzyme Research Laboratories, HFX 1010) (natural protein)
 | 80 | recombinant human FcRn (from UniProt P55899 24-365) (receptor)
